Data as given in publication PMC7057950.

Key:
[1] = molecular target: ligand binding domain of the glucocorticoid receptor, Atto488-labelled (GR-LBDm-Atto 488); test: analytical ultracentrifugation; conditions: parent: est. 0.77; read off a plot
[2] = molecular target: yHsp90 (Saccharomyces cerevisiae) (UniProt P02829); conditions: remark: other sources report otherwise

Row | Substance | response (normalized dc/dt) [1] | Kd [2] [nM]
1 | human Hsp90β, wild type (from UniProt P08238) K607A | 0.58 | 
2 | human Hsp90β, wild type (from UniProt P08238) K607E | 0.37 | 
3 | human Hsp90β, wild type (from UniProt P08238) K607I | 0.71 | 
4 | human Hsp90β, wild type (from UniProt P08238) K607R | 0.82 | 
5 | yHsp90, P02829 |  | 45
